Experimental data taken from patent US20150266963A1 (ARGEN X B V, published 2015).

Tests used:
[1] = biological target: T1, human CD70 expressed on the surface of cells (human, UniProt P32970 1-193); assay: FACS MFI at 37 C, Mec1 cells; reference SGN70
T1 construct: whole, on cells; also called cell surface expressed CD70; CD70 on cells
T1 sequence (looked up): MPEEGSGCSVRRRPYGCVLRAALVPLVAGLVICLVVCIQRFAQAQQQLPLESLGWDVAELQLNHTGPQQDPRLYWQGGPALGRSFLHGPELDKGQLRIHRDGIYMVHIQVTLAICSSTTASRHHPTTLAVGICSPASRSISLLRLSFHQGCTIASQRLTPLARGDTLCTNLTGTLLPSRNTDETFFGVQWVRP
Experimental: (§1) Several cancer cell lines were tested by FACS analysis for binding of ARGX-110 and SGN70 (described in US2010/0129362) at saturating mAb concentrations (at least 2 μg/ml). This was either done at 4° C. (1 hour incubation of cells with mAbs) or at 37° C. (15 minutes incubation of cells with mAbs). Binding was detected using anti-hIgG1-Fc-FITC (AF006, Binding Site) or anti-hIgG1-Fc-PE antibody (eBioscience, 12-4998). Fluorescence was measured using a flow cytometer.

[2] = biological target: T2, human-mouse CD70 chimera chim-1 (Flag-TNC-CD70) (Homo sapiens (Human), UniProt P32970 58-193, Soluble homotrimer held by the TNC domain; one CD70 ECD chain is given.); assay: ELISA; chimera captured by anti-Flag mAb; anti-human-Fc-HRP
T2 construct: also called chimera 1; not shown: N-terminal Flag tag, TNC (tenascin-C) trimerisation domain and any linkers of the Flag-TNC-CD70 construct
T2 chain: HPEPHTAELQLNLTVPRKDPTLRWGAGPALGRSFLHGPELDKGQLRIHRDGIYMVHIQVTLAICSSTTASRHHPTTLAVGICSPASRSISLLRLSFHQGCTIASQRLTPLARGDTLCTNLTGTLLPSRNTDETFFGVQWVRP
Experimental: (§2) A Maxisorb (Nunc) microtiter plate was coated with 3.5 μg/ml mouse M2 anti-Flag mAb (Sigma Aldrich, F3165) and the different chimeras were captured. A dilution series of the CD70 mAbs to be tested was applied starting at a concentration of 10 μg/ml and making 3-fold dilutions. After 2 hours, binding was detected using anti-human-Fc-HRP at a 16000-fold dilution. Staining was done with ABTS and OD at 405 nm was measured. As a positive control, CD27-Fc was applied which is able to bind to both human and mouse CD70 with good affinity as well as to the chimeric human-mouse CD70 variants.

[3] = biological target: T3, human-mouse CD70 chimera chim-2.1 (Flag-TNC-CD70) (Soluble homotrimer held by the TNC domain; one CD70 ECD chain is given.); assay: as above
T3 construct: also called chimera 2.1; not shown: N-terminal Flag tag, TNC (tenascin-C) trimerisation domain and any linkers of the Flag-TNC-CD70 construct
T3 chain: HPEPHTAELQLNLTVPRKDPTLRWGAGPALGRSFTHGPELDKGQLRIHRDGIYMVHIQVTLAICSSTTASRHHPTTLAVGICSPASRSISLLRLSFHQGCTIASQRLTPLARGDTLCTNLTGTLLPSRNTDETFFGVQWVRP
Experimental: as §2

[4] = biological target: T4, recombinant human CD70 (Flag-TNC-CD70) (human, UniProt P32970 39-193); assay: ELISA; Flag-TNC-CD70 captured by anti-Flag mAb; anti-human-Fc-HRP
T4 construct: extracellular domain; Captured by anti-Flag mAb in ELISA; as 'recombinant human CD70' immobilised on Biacore CM5 chips; TNC is for trimerisation; also called recombinant CD70; human recombinant CD70; not shown: Flag tag and TNC trimerisation domain
T4 sequence (looked up): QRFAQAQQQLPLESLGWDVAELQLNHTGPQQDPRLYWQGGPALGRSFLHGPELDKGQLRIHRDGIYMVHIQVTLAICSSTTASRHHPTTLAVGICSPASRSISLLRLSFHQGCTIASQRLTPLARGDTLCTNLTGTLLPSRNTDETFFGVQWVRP
Experimental: as §2

[5] = biological target: T1, human CD70 expressed on the surface of …; assay: FACS MFI at 37 C, U87MG cells; reference SGN70
Experimental: as §1

[6] = biological target: T1, human CD70 expressed on the surface of …; assay: FACS MFI at 37 C, U266 cells; reference SGN70
Experimental: as §1

[7] = biological target: T4, recombinant human CD70 (Flag-TNC-CD70); assay: blocking ELISA; competitor CD27-Fc; references SGN70 and MDX1411
Experimental: In this assay, a microtiter plate (Nunc Maxisorb) was first coated with 100 μl anti-FLAG M2 monoclonal antibody (Sigma Aldrich, F3165) at 1250-fold dilution in PBS (to achieve a final concentration of approximately 3.5 μg/ml) overnight at 4° C. The plate was washed once with PBS-Tween and incubated at RT for 2 hours with 300 μl PBS-1% casein. The plate was washed a further three times with PBS-Tween. 100 μl of 5 ng/ml (80 pM) Flag-TNC-CD70 (The Journal of Immunology, 2009, 183: 1851-1861) diluted in PBS-0.1% casein was added to the plate and incubated at RT for 1 hour while shaking. The plate was washed five times with PBS-Tween. The CD70 mAb to be tested was added to the plate; various concentrations were achieved by diluting the stock antibody solution in PBS-0.1% casein. Immediately thereafter, 50 μl of 1 μg/ml (final concentration 6.5 nM) recombinant human CD27 Fc chimera (R&D systems 382-CD, MW=46.5 kDa) was added, and incubated at RT for 1 hour while shaking. The plate was washed five times with PBS Tween. 100 μl of biotinylated anti-CD27 (eBioscience 13-0271), diluted 500-fold in PBS-0.1% casein, was added, and the plate incubated at RT for a further hour, while shaking. The plate was washed five times with PBS Tween. […] 100 μl TMB was added to the plate and the OD at 620 nm was measured. […]

[8] = biological target: T1, human CD70 expressed on the surface of …; assay: FACS MFI at 37 C, Raji cells; reference SGN70
Experimental: as §1

B1: ARGX-110 (non-fucosylated 41D12 human IgG1) (antibody, V domains shown)
VH: EVQLVESGGGLVQPGGSLRLSCAASGFTFSVYYMNWVRQAPGKGLEWVSDINNEGGTTYYADSVKGRFTISRDNSKNSLYLQMNSLRAEDTAVYYCARDAGYSNHVPIFDSWGQGTLVTVSS
VL: QAVVTQEPSLTVSPGGTVTLTCGLKSGSVTSDNFPTWYQQTPGQAPRLLIYNTNTRHSGVPDRFSGSILGNKAALTITGAQADDEAEYFCALFISNPSVEFGGGTQLTVLG
notes: also called 41D12 (ARGX-110)
Question: With B1 as the binder, how does the “Signal in FACS of ARGX-110/signal in FACS of SGN70” value (“Signal in FACS of ARGX-110/signal” for short) [1] read?
Answer: 1.2 ratio

Question: And the EC50 [2]?
Answer: 0.027 µg/mL

Question: What about the EC50 [3] of the same binder?
Answer: 0.015 µg/mL

Question: What about the EC50 [4] of the same binder?
Answer: 0.022 µg/mL

Question: And the “Signal in FACS of ARGX-110/signal” value [5]?
Answer: 2 ratio

Question: What about the “Signal in FACS of ARGX-110/signal” value [6] of the same binder?
Answer: 0.8 ratio

Question: What about the “fold more potent in blocking than the two benchmark mAbs” value [7] of the same binder?
Answer: ~100 fold

Question: What about the “Signal in FACS of ARGX-110/signal” value [8] of the same binder?
Answer: 1.2 ratio
